Laboratory results from US20240270821A1, “GIP/GLP1/GCG TRI-RECEPTOR AGONISTS AND USES THEREOF” (priority 2023, published 2024).

T1: human GIP receptor (human) (UniProt P48546)
T1 sequence (looked up): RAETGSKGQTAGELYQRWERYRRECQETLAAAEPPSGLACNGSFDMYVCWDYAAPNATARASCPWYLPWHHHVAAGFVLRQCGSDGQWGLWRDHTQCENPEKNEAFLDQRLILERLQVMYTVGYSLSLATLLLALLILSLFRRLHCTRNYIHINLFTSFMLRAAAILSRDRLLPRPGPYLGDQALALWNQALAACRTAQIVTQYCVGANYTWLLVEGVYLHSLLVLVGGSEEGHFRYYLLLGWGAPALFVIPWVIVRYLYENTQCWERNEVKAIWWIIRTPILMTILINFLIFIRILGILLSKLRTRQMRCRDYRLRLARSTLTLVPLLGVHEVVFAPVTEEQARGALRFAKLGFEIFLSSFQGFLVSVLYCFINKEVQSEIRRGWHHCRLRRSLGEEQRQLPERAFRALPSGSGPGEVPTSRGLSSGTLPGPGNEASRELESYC


How the values were obtained:
Experiment in all cases: cell-based or functional assay
[1] = molecular target: T1, human GIP receptor (human)
[2] = molecular target: human glucagon receptor (human) (UniProt P47871)
[3] = molecular target: human GLP1-R (SNAP-GLP-1R expressed in HEK293 cells) (human) (UniProt P43220)
[4] = molecular target: hGLP-1R (Homo sapiens, UniProt P43220)
Chain of hGLP-1R (P43220 24-463): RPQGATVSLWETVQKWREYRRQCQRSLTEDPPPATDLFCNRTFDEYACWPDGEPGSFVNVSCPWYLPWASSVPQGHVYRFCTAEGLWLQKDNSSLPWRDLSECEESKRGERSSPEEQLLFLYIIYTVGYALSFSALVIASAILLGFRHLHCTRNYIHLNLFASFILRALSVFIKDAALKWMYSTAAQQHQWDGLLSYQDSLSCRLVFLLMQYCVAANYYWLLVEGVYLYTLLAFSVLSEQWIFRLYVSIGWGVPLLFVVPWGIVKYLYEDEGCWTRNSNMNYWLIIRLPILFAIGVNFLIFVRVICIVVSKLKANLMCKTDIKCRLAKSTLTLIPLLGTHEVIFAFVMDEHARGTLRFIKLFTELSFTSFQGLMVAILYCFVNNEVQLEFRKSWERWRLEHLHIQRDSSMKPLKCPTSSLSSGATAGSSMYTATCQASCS

Chain of human GLP1-R (SNAP-GLP-1R expressed in HEK293 cells) (human) (P43220 24-463): as above
Chain of human glucagon receptor (human) (P47871 26-477): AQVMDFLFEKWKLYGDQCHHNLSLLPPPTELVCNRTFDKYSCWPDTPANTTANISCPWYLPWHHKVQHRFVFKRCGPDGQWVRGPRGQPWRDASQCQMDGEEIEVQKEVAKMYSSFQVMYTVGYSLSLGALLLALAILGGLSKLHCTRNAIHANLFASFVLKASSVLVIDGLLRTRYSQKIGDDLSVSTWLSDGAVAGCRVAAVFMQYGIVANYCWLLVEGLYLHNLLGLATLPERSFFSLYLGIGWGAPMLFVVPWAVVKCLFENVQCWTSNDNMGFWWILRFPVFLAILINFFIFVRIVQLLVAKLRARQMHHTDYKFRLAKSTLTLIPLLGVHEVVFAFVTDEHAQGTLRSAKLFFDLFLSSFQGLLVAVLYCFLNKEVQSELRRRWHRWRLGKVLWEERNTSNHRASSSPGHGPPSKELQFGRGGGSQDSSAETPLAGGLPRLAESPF

Binder	Relative cAMP EC50 [1] [nM]	cAMP Rel EC50, nM (in the presence of 1% HSA) [1] [nM]	Relative cAMP EC50 [2] [nM]	cAMP Rel EC50, nM (in the presence of 1% HSA) [2] [nM]	GLP1R Internalization EC50 [3] [nM]	Internalization % TOP [3] [%]	Relative cAMP EC50 [4] [nM]	cAMP Rel EC50, nM (in the presence of 1% HSA) [4] [nM]	cAMP Rel EC50 (in the presence of 1% HSA) [1] [nM]	cAMP Rel EC50 (in the presence of 1% HSA) [2] [nM]	cAMP Rel EC50 (in the presence of 1% HSA) [4] [nM]
YXQGTFTSDFSXXLDKKAQXAFIEYLLAGGPSSGEPPPEGE (synthetic construct; SITE 2: note = 2-Aminoisobutyric Acid; SITE 12: note = L-ornithine; SITE 13: note = alpha-methyl-leucine; SITE 17: note = Lysine is chemically modified through conjugation of the epsilon-amino group of the Lysine side chain with (2-[2-(2-Amino-ethoxy)-ethoxy]-acetyl)-(gamma-Glu)) [Example 98]	0.179	33.8	6.91	867	56	49.3	4.35	660	–	–	–
YXQGTFTSDFSKXLDKKAQXAFIEYLLAGGPSSGAPPPSSG (synthetic construct; SITE 2: note = 2-Aminoisobutyric Acid; SITE 13: note = alpha-methyl-leucine; SITE 17: note = Lysine is chemically modified through conjugation of the epsilon-amino group of the Lysine side chain with (2-[2-(2-Amino-ethoxy)-ethoxy]-acetyl)-(gamma-Glu)-CO-(CH2) 18-CO2H; SITE 20: n) [Example 13]	0.196	–	7.19	–	53.3	74.7	1.78	–	29.2	1670	282
YXQGTFTSDFSXXLDKKAQXAFIEYLLAGGPSSGAPPPEGE (synthetic construct; SITE 2: note = 2-Aminoisobutyric Acid; SITE 12: note = L-ornithine; SITE 13: note = alpha-methyl-leucine; SITE 17: note = Lysine is chemically modified through conjugation of the epsilon-amino group of the Lysine side chain with (2-[2-(2-Amino-ethoxy)-ethoxy]-acetyl)-(gamma-Glu)) [Example 99]	0.174	29.5	6.09	1130	56.9	46.1	3.54	588	–	–	–
YXQGTFTSDFSXXLDKKAQXAFIEYLLAGGPSSGEPPPSGS (synthetic construct; SITE 2: note = 2-Aminoisobutyric Acid; SITE 12: note = L-ornithine; SITE 13: note = alpha-methyl-leucine; SITE 17: note = Lysine is chemically modified through conjugation of the epsilon-amino group of the Lysine side chain with (2-[2-(2-Amino-ethoxy)-ethoxy]-acetyl)-(gamma-Glu)) [Example 94]	0.154	21.4	8.16	1220	37.1	47.2	2.63	480	–	–	–
YXQGTFTSDFSKXLDKKAQXAFIEYLLAGGPSSGEPPPSGS (synthetic construct; SITE 2: note = 2-Aminoisobutyric Acid; SITE 13: note = alpha-methyl-leucine; SITE 17: note = Lysine is chemically modified through conjugation of the epsilon-amino group of the Lysine side chain with (2-[2-(2-Amino-ethoxy)-ethoxy]-acetyl)-(gamma-Glu)-CO-(CH2) 18-CO2H; SITE 20: n) [Example 8]	0.231	–	6.65	–	63.2	74	2.11	–	39.4	1560	603
YXQGTFTSDFSKXLDKKAQXAFIEYLLEGGPSSGAPPPGEG (synthetic construct; SITE 2: note = 2-Aminoisobutyric Acid; SITE 13: note = alpha-methyl-leucine; SITE 17: note = Lysine is chemically modified through conjugation of the epsilon-amino group of the Lysine side chain with (2-[2-(2-Amino-ethoxy)-ethoxy]-acetyl)2-(gamma-Glu)-CO-(CH2 )18-CO2H; SITE 20:) [Example 17]	0.317	–	8.33	–	66.2	72.2	2.96	–	91.7	2040	543
YXQGTFTSDFSKXLDKKAQXAFIEYLLAGGPSSGAPPPGGE (synthetic construct; SITE 2: note = 2-Aminoisobutyric Acid; SITE 13: note = alpha-methyl-leucine; SITE 17: note = Lysine is chemically modified through conjugation of the epsilon-amino group of the Lysine side chain with (2-[2-(2-Amino-ethoxy)-ethoxy]-acetyl)-(gamma-Glu)-CO-(CH2) 18-CO2H; SITE 20: n) [Example 15]	0.201	–	11.1	–	79	74.9	1.77	–	36.3	1980	276
YXQGTFTSDFSKXLDKKAQXAFIEYLLAGGPSSGAPPPSGE (synthetic construct; SITE 2: note = 2-Aminoisobutyric Acid; SITE 13: note = alpha-methyl-leucine; SITE 17: note = Lysine is chemically modified through conjugation of the epsilon-amino group of the Lysine side chain with (2-[2-(2-Amino-ethoxy)-ethoxy]-acetyl)-(gamma-Glu)-CO-(CH2) 18-CO2H; SITE 20: n) [Example 11]	0.233	–	12.5	–	75.1	73.8	2.07	–	40.8	1700	337
YXQGTFTSDFSKXLDKKAQXAFIEYLLAGGPSSGAPPPSEG (synthetic construct; SITE 2: note = 2-Aminoisobutyric Acid; SITE 13: note = alpha-methyl-leucine; SITE 17: note = Lysine is chemically modified through conjugation of the epsilon-amino group of the Lysine side chain with (2-[2-(2-Amino-ethoxy)-ethoxy]-acetyl)-(gamma-Glu)-CO-(CH2) 18-CO2H; SITE 20: n) [Example 10]	0.226	–	7.62	–	79.2	71.9	1.85	–	43	1640	375
YXQGTFTSDFSKXLDKKAQXAFIEYLLEGGPSSGAPPPGGS (synthetic construct; SITE 2: note = 2-Aminoisobutyric Acid; SITE 13: note = alpha-methyl-leucine; SITE 17: note = Lysine is chemically modified through conjugation of the epsilon-amino group of the Lysine side chain with (2-[2-(2-Amino-ethoxy)-ethoxy]-acetyl)-(gamma-Glu)-CO-(CH2) 18-CO2H; SITE 20: n) [Example 18]	0.337	–	2.7	–	91.8	74.1	2.31	–	59.6	1210	561
YXQGTFTSDFSKXLDKKAQXAFIEYLLAGGPSSGEPPPSSG (synthetic construct; SITE 2: note = 2-Aminoisobutyric Acid; SITE 13: note = alpha-methyl-leucine; SITE 17: note = Lysine is chemically modified through conjugation of the epsilon-amino group of the Lysine side chain with (2-[2-(2-Amino-ethoxy)-ethoxy]-acetyl)-(gamma-Glu)-CO-(CH2) 18-CO2H; SITE 20: n) [Example 7]	0.203	–	5.05	–	52.6	76.3	2.11	–	50.6	1210	494
